Blank lines part the entries; values can stand above or below the binder they belong to.
Assays:
[1] = target: anti-CC49 variable region (anti-idiotypic) antibodies in the serum of patient two; assay: HPLC size exclusion; 5 µg cold competitor + ^125I-HuCC49 + patient serum; less complex = more competition
[2] = target: anti-CC49 variable region (anti-idiotypic) antibodies in the serum of patient four; assay: as above
[3] = target: anti-CC49 variable region (anti-idiotypic) antibodies in the serum of patient five; assay: as above
[4] = target: anti-CC49 variable region (anti-idiotypic) antibodies in the serum of patient one; assay: as above
[5] = target: anti-CC49 variable region (anti-idiotypic) antibodies in the serum of patient three; assay: as above
[6] = target: anti-CC49 variable region (anti-idiotypic) antibodies in the serum of patient six; assay: as above
[7] = target: TAG72 positive bovine submaxillary mucin (BSM) (bovine); assay: relative affinity constant from competition RIA on BSM
[8] = target: mouse anti-idiotypic MAb AI49-3 (β-subset); assay: competition RIA vs ^125I-murine CC49 on adsorbed AI49-3
[9] = target: mouse anti-idiotypic MAb AI49-1 (γ-subset); assay: competition RIA vs ^125I-murine CC49 on adsorbed AI49-1
[10] = target: anti-idiotypic antibodies to MAb CC49 in the serum of one patient (not named, Example V); assay: HPLC size-exclusion competition: cold competitor vs ^125I-HuCC49 for complex formation with patient serum
[11] = target: anti-CC49 variable region (anti-idiotypic) antibodies in the serum of patient two; assay: HPLC competition, serial dilutions of cold competitor vs ^125I-HuCC49 with serum of patient two
[12] = target: anti-CC49 variable region (anti-idiotypic) antibodies in the serum of patient two; assay: HPLC size exclusion; ^125I-HuCC49 + patient serum, no competitor
[13] = target: anti-CC49 variable region (anti-idiotypic) antibodies in the serum of patient four; assay: as above
[14] = target: anti-CC49 variable region (anti-idiotypic) antibodies in the serum of patient five; assay: as above
[15] = target: anti-CC49 variable region (anti-idiotypic) antibodies in the serum of patient one; assay: as above
[16] = target: anti-CC49 variable region (anti-idiotypic) antibodies in the serum of patient three; assay: as above
[17] = target: anti-CC49 variable region (anti-idiotypic) antibodies in the serum of patient six; assay: as above

fold less than the Ka of HuCC49 [7]: 2 fold
B1: HuCC49 CDR variant L-1 (antibody, V domains shown)
VH: QVQLVQSGAEVVKPGASVKISCKASGYTFTDHAIHWVKQNPGQRLEWIGYFSPGNDDFKYNERFKGKATLTADTSASTAYVELSSLRSEDTAVYFCTRSLNMAYWGQGTLVTVSS
VL: DIVMSQSPDSLAVSLGERVTLNCKSSQSVLYSSNSKNYLAWYQQKPGQSPKLLIYWASARESGVPDRFSGSGSGTDFTLTISSVQAEDVAVYYCQQYYSYPLTFGAGTKLELK
percent of complexes [1]: 16.9% | percent of complexes [2]: 10.1% | percent of complexes [3]: 14.3% | percent of complexes [4]: 12.2% | percent of complexes [5]: 9.8% | percent of complexes [6]: 16%

B2: HuCC49 CDR variant L-3 (antibody, V domains shown)
VH: QVQLVQSGAEVVKPGASVKISCKASGYTFTDHAIHWVKQNPGQRLEWIGYFSPGNDDFKYNERFKGKATLTADTSASTAYVELSSLRSEDTAVYFCTRSLNMAYWGQGTLVTVSS
VL: DIVMSQSPDSLAVSLGERVTLNCKSSQSLLYSGNQKNYLAWYQQKPGQSPKLLIYWASARESGVPDRFSGSGSGTDFTLTISSVQAEDVAVYYCQQYYSTPYSFGAGTKLELK
percent of complexes [1]: 33.5% | percent of complexes [2]: 37.6% | percent of complexes [3]: 46.7% | percent of complexes [4]: 48.2% | percent of complexes [5]: 22.4% | percent of complexes [6]: 34.8%

B3: HuCC49 CDR variant H-3 (antibody, V domains shown)
VH: QVQLVQSGAEVVKPGASVKISCKASGYTFTDHAIHWVKQNPGQRLEWIGYFSPGNDDFKYNERFKGKATLTADTSASTAYVELSSLRSEDTAVYFCTRGGYYGSGSGSNYWGQGTLVTVSS
VL: DIVMSQSPDSLAVSLGERVTLNCKSSQSLLYSGNQKNYLAWYQQKPGQSPKLLIYWASARESGVPDRFSGSGSGTDFTLTISSVQAEDVAVYYCQQYYSYPLTFGAGTKLELK
percent of complexes [1]: 6.7% | percent of complexes [2]: 8.2% | percent of complexes [3]: 4.6% | percent of complexes [4]: 5.1% | percent of complexes [5]: 3.7% | percent of complexes [6]: 7.3%

fold less than the Ka of HuCC49 [7]: 300 fold
B4: HuCC49 CDR variant H-2 (antibody, V domains shown)
VH: QVQLVQSGAEVVKPGASVKISCKASGYTFTDHAIHWVKQNPGQRLEWIGWINAGNGNTKYSQKFQGKATLTADTSASTAYVELSSLRSEDTAVYFCTRSLNMAYWGQGTLVTVSS
VL: DIVMSQSPDSLAVSLGERVTLNCKSSQSLLYSGNQKNYLAWYQQKPGQSPKLLIYWASARESGVPDRFSGSGSGTDFTLTISSVQAEDVAVYYCQQYYSYPLTFGAGTKLELK
percent of complexes [1]: 29.7% | percent of complexes [2]: 24.7% | percent of complexes [3]: 36.6% | percent of complexes [4]: 32.5% | percent of complexes [5]: 12.7% | percent of complexes [6]: 32.7% | fold more competitor for 50% inhibition than HuCC49 [8]: 4 to 15 fold | fold more competitor for 50% inhibition than HuCC49 [9]: 4 to 15 fold

fold less than the Ka of HuCC49 [7]: 2 to 3 fold
B5: HuCC49 variant ^97L1,2 (antibody, V domains shown)
VH: QVQLVQSGAEVVKPGASVKISCKASGYTFTDHAIHWVKQNPGQRLEWIGYFSPGNDDFKYNERFKGKATLTADTSASTAYVELSSLRSEDTAVYFCTRSLNMAYWGQGTLVTVSS
VL: DIVMSQSPDSLAVSLGERVTLNCKSSQSVLYSSNSKNYLAWYQQKPGQSPKLLIYWASTRESGVPDRFSGSGSGTDFTLTISSVQAEDVAVYYCQQYYSYPLSFGAGTKLELK

B6: HuCC49 CDR variant L-2 (antibody, V domains shown)
VH: QVQLVQSGAEVVKPGASVKISCKASGYTFTDHAIHWVKQNPGQRLEWIGYFSPGNDDFKYNERFKGKATLTADTSASTAYVELSSLRSEDTAVYFCTRSLNMAYWGQGTLVTVSS
VL: DIVMSQSPDSLAVSLGERVTLNCKSSQSLLYSGNQKNYLAWYQQKPGQSPKLLIYWASTRESGVPDRFSGSGSGTDFTLTISSVQAEDVAVYYCQQYYSYPLTFGAGTKLELK
fold better competition than parental HuCC49 [10]: 2 fold | percent of complexes [1]: 3% | percent of complexes [2]: 4.4% | percent of complexes [3]: 2.4% | percent of complexes [4]: 3.4% | percent of complexes [5]: 2.7% | percent of complexes [6]: 2.7%

fold less than the Ka of HuCC49 [7]: 2 fold
B7: HuCC49 CDR variant L-1,2 (antibody, V domains shown)
VH: QVQLVQSGAEVVKPGASVKISCKASGYTFTDHAIHWVKQNPGQRLEWIGYFSPGNDDFKYNERFKGKATLTADTSASTAYVELSSLRSEDTAVYFCTRSLNMAYWGQGTLVTVSS
VL: DIVMSQSPDSLAVSLGERVTLNCKSSQSVLYSSNSKNYLAWYQQKPGQSPKLLIYWASTRESGVPDRFSGSGSGTDFTLTISSVQAEDVAVYYCQQYYSYPLTFGAGTKLELK
percent of complexes [1]: 15.7% | percent of complexes [2]: 19.4% | percent of complexes [3]: 20.2% | percent of complexes [4]: 24.5% | percent of complexes [5]: 12.6% | percent of complexes [6]: 24.6%

B8: HuCC49 CDR variant H-1 (antibody, V domains shown)
VH: QVQLVQSGAEVVKPGASVKISCKASGYTFTSYAMHWVKQNPGQRLEWIGYFSPGNDDFKYNERFKGKATLTADTSASTAYVELSSLRSEDTAVYFCTRSLNMAYWGQGTLVTVSS
VL: DIVMSQSPDSLAVSLGERVTLNCKSSQSLLYSGNQKNYLAWYQQKPGQSPKLLIYWASARESGVPDRFSGSGSGTDFTLTISSVQAEDVAVYYCQQYYSYPLTFGAGTKLELK
percent of complexes [1]: 5.8% | percent of complexes [2]: 7% | percent of complexes [3]: 3.5% | percent of complexes [4]: 3.9% | percent of complexes [5]: 3.3% | percent of complexes [6]: 10.2%

B9: humanized monoclonal antibody HuCC49 (parental HuCC49) (antibody, V domains shown)
VH: QVQLVQSGAEVVKPGASVKISCKASGYTFTDHAIHWVKQNPGQRLEWIGYFSPGNDDFKYNERFKGKATLTADTSASTAYVELSSLRSEDTAVYFCTRSLNMAYWGQGTLVTVSS
VL: DIVMSQSPDSLAVSLGERVTLNCKSSQSLLYSGNQKNYLAWYQQKPGQSPKLLIYWASARESGVPDRFSGSGSGTDFTLTISSVQAEDVAVYYCQQYYSYPLTFGAGTKLELK
percent of complexes [1]: 1.5% | percent of complexes [2]: 0.5% | percent of complexes [3]: 3% | percent of complexes [4]: 0% | percent of complexes [5]: 2.6% | percent of complexes [6]: 0% | amount of competitor for 25% competition [11]: 60 ng | percent of complexes [12]: 32.2% | percent of complexes [13]: 56.8% | percent of complexes [14]: 42.9% | percent of complexes [15]: 46.2% | percent of complexes [16]: 24.5% | percent of complexes [17]: 33.5%
